Source: PMC7954794, “Protein context shapes the specificity of SH3 domain-mediated interactions in vivo” (Nature Communications, 2021)

System: Abp1 PPIs
Test: DHFR-PCA of Abp1 SH3-swapped baits (Fig. 2B-D, S2C, S2F);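 as to Protein-protein interaction distance between Abp1 SH3-swapped baits, to ABP1: Euclidean distance between DHFR-PCA score profiles of the baits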;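 as to Protein-protein interaction distance between Abp1 SH3-swapped baits, to BEM1-2: Euclidean distance between DHFR-PCA score profiles of the baits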;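 as to Protein-protein interaction distance between Abp1 SH3-swapped baits, to BOI1: Euclidean distance between DHFR-PCA score profiles of the baits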;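 as to Protein-protein interaction distance between Abp1 SH3-swapped baits, to BZZ1-1: Euclidean distance between DHFR-PCA score profiles of the baits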
Format: cell-based, Saccharomyces cerevisiae
Method in brief: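 Interactions were scored by DHFR protein-fragment complementation. DHFR F[1,2]-tagged Abp1 strains, whose SH3 was swapped for yeast or human ortholog domains, were crossed on YPD at 30 °C for 48 h with a 1536-format array of 575 prey-DHFR F[3] strains and 40 negatives, giving four replicates per pair. PCA selection lasted 4 days after double diploid selection.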

[1] = number of PPIs, difference, Abp1 SH3-swapped with the listed SH3, Fig2D,S2F

B1: MYO5 (protein, UniProt Q04439 1-1219, looked up)
Myosin-5: MAILKRGARKKVHQEPAKRSANIKKATFDSSKKKEVGVSDLTLLSKISDEAINENLKKRFLNATIYTYIGHVLISVNPFRDLGIYTDAVMNEYKGKNRLEVPPHVFAIAESMYYNMKSYNENQCVIISGESGAGKTEAAKRIMQYIAAASSTHTESIGKIKDMVLATNPLLESFGCAKTLRNNNSSRHGKYLEIKFNNQFEPCAGNITNYLLEKQRVVSQIKNERNFHIFYQFTKGASDAYRQTFGVQKPEQYVYTAAAGCISAETIDDLQDYQETLKAMRVIGLGQEEQDQIFRMLAAILWIGNVSFIENEEGNAQVRDTSVTDFVAYLLQIDSQLLIKSLVERIMETNHGMKRGSVYHVPLNIVQADAVRDALAKAIYNNLFDWIVSRVNKSLQAFPGAEKSIGILDIYGFEIFEHNSFEQICINYVNEKLQQIFIQLTLKSEQETYEREKIQWTPIKYFDNKVVCDLIEARRPPGIFAAMNDSVATAHADSNAADQAFAQRLNLFTTNPHFDLRSNKFVIKHYAGDVTYDIDGITDKNKDQLQKDLVELIGTTTNTFLATIFPDTVDRESKRRPPTAGDKIIKSANDLVETLSKAQPSYIRTIKPNETKSPNDYDDRQVLHQIKYLGLQENVRIRRAGFAYRQVFEKFVERFYLLSPHCSYAGDYTWQGDTLDAVKYILQDSSIPQQEYQLGVTSVFIKTPETLFALEHMRDRYWHNMAARIQRAWRRFLQRRIDAATKIQRTIRERKEGNKYEKLRDYGTKVLGGRKERRSMSLLGYRAFMGDYLSCNESKSKGAYIKRQVSIKEKVIFSIHGEALHTKFGRSAQRLKKTFLLTPTTLYIVGQTLVQNAMTYTQDYKIDVRNIQAVSLTNLQDDWVAIKLASSGQPDPLINTYFKTELITHLKRLNDKIQIKIGSAIEYQKKPGKLHSVKCQINESAPKYGDIYKSSTISVRRGNPPNSQVHKKPRKKSSISSGYHASSSQATRRPVSIAAAQHVPTAPASRHSKKPAPPPPGMQNKAATRRSVPNPASTLTASQSNARPSPPTAATRATPAATPAAAAMGSGRQANIPPPPPPPPPSSKPKEPMFEAAYDFPGSGSPSELPLKKGDVIYITREEPSGWSLGKLLDGSKEGWVPTAYMKPHSGNNNIPTPPQNRDVPKPVLNSVQHDNTSANVIPAAAQASLGDGLANALAARANKMRLESDDEEANEDEEEDDW
B1 was tested, and the “Protein-protein interaction distance between Abp1 SH3-swapped baits, to ABP1” value (Abp1 bait with swapped SH3, distance to bait with ABP1 SH3, sheet Fig2C) was 12.37, the “Protein-protein interaction distance between Abp1 SH3-swapped baits, to BBC1” value (distance to Abp1 bait with BBC1 SH3, sheet Fig2C) was 12.56 and the “Protein-protein interaction distance between Abp1 SH3-swapped baits, to BEM1-1” value (distance to Abp1 bait with BEM1-1 SH3, sheet Fig2C) was 17.04. For the same molecule, the “Protein-protein interaction distance between Abp1 SH3-swapped baits, to BEM1-2” value (distance to Abp1 bait with BEM1-2 SH3, sheet Fig2C) was 34.62, the “Protein-protein interaction distance between Abp1 SH3-swapped baits, to BOI1” value (distance to Abp1 bait with BOI1 SH3, sheet Fig2C) was 14.33 and the “Protein-protein interaction distance between Abp1 SH3-swapped baits, to BOI2” value (distance to Abp1 bait with BOI2 SH3, sheet Fig2C) was 17.59. The “Protein-protein interaction distance between Abp1 SH3-swapped baits, to BUD14” value (distance to Abp1 bait with BUD14 SH3, sheet Fig2C) was 20.27, the “Protein-protein interaction distance between Abp1 SH3-swapped baits, to BZZ1-1” value (distance to Abp1 bait with BZZ1-1 SH3, sheet Fig2C) was 9.674 and the “Protein-protein interaction distance between Abp1 SH3-swapped baits, to BZZ1-2” value (distance to Abp1 bait with BZZ1-2 SH3, sheet Fig2C) was 13.83. For the same molecule, the “Protein-protein interaction distance between Abp1 SH3-swapped baits, to CDC25” value (distance to Abp1 bait with CDC25 SH3, sheet Fig2C) was 28.8, the “Protein-protein interaction distance between Abp1 SH3-swapped baits, to CTTN” value (distance to Abp1 bait with CTTN SH3, sheet Fig2C) was 14.85 and the “Protein-protein interaction distance between Abp1 SH3-swapped baits, to CYK3” value (distance to Abp1 bait with CYK3 SH3, sheet Fig2C) was 29.49. The “Protein-protein interaction distance between Abp1 SH3-swapped baits, to DBNL” value (distance to Abp1 bait with DBNL SH3, sheet Fig2C) was 9.722, the “Protein-protein interaction distance between Abp1 SH3-swapped baits, to FUS1” value (distance to Abp1 bait with FUS1 SH3, sheet Fig2C) was 21.47 and the “Protein-protein interaction distance between Abp1 SH3-swapped baits, to HCLS1” value (distance to Abp1 bait with HCLS1 SH3, sheet Fig2C) was 10.37. The “Protein-protein interaction distance between Abp1 SH3-swapped baits, to HOF1” value (distance to Abp1 bait with HOF1 SH3, sheet Fig2C) was 33.29, the “Protein-protein interaction distance between Abp1 SH3-swapped baits, to HSE1” value (distance to Abp1 bait with HSE1 SH3, sheet Fig2C) was 10.84 and the “Protein-protein interaction distance between Abp1 SH3-swapped baits, to LSB1” value (distance to Abp1 bait with LSB1 SH3, sheet Fig2C) was 7.822. The “Protein-protein interaction distance between Abp1 SH3-swapped baits, to LSB3” value (distance to Abp1 bait with LSB3 SH3, sheet Fig2C) was 8.063, the “Protein-protein interaction distance between Abp1 SH3-swapped baits, to MYO3” value (distance to Abp1 bait with MYO3 SH3, sheet Fig2C) was 5.861 and the “Protein-protein interaction distance between Abp1 SH3-swapped baits, to MYO5” value (distance to Abp1 bait with MYO5 SH3, sheet Fig2C) was 0.00. For the same molecule, the “Protein-protein interaction distance between Abp1 SH3-swapped baits, to NBP2” value (distance to Abp1 bait with NBP2 SH3, sheet Fig2C) was 19.41, the “Protein-protein interaction distance between Abp1 SH3-swapped baits, to PEX13” value (distance to Abp1 bait with PEX13 SH3, sheet Fig2C) was 7.969 and the “Protein-protein interaction distance between Abp1 SH3-swapped baits, to PIN3” value (distance to Abp1 bait with PIN3 SH3, sheet Fig2C) was 6.67. The “Protein-protein interaction distance between Abp1 SH3-swapped baits, to RVS167” value (distance to Abp1 bait with RVS167 SH3, sheet Fig2C) was 7.689, the “Protein-protein interaction distance between Abp1 SH3-swapped baits, to SDC25” value (distance to Abp1 bait with SDC25 SH3, sheet Fig2C) was 35.29 and the “Protein-protein interaction distance between Abp1 SH3-swapped baits, to SHO1” value (distance to Abp1 bait with SHO1 SH3, sheet Fig2C) was 10.26. The “Protein-protein interaction distance between Abp1 SH3-swapped baits, to SLA1-1” value (distance to Abp1 bait with SLA1-1 SH3, sheet Fig2C) was 31.36, the “Protein-protein interaction distance between Abp1 SH3-swapped baits, to SLA1-2” value (distance to Abp1 bait with SLA1-2 SH3, sheet Fig2C) was 22.13 and the “Protein-protein interaction distance between Abp1 SH3-swapped baits, to SLA1-3” value (distance to Abp1 bait with SLA1-3 SH3, sheet Fig2C) was 7.257. For the same molecule, the “Protein-protein interaction distance between Abp1 SH3-swapped baits, to YSC84” value (distance to Abp1 bait with YSC84 SH3, sheet Fig2C) was 8.128, the “PPIs gained by Abp1 - SH3-dependent PPIs gained by Abp1” value [1] was 27 and the “SH3-dependent PPIs - SH3-dependent PPIs gained by Abp1” value [1] was 16. For the same molecule, the “SH3-dependent PPIs gained by Abp1” value (number of PPIs, Abp1 SH3-swapped with the listed SH3, DHFR-PCA, Fig2D,S2F) was 3.
